Reference: US7063946B2, “Methods, reagents, kits and apparatus for protein function analysis” (Meso Scale Technologies, LLC., priority 2001, dated 2006)

Legend:
[1] = target: T1, Myc peptide (SEQ ID NO: 4) (Homo sapiens, UniProt P01106); assay: 96-well screen for phosphopeptide binding proteins, 7-spot IPR plates; conditions: two steps of normalization; top 9 clones
T1 construct: phosphothreonine (T58) and phosphoserine (S62) (chemical modification); purchased New England Peptide, Fitchburg Mass; host or cells: chemical synthesis
T1 sequence (P01106 with tags, fused parts or gaps limits assumed): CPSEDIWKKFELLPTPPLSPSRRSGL
Experimental: (§1) A screen was conducted using 7-spot IPR plates. The 7 spot NPT IPR plates are described in more detail in copending Provisional Application No. 60/301,932 (entitled “Assay Plates, Reader Systems and Methods for Luminescence Test Measurements”, filed on Jun. 29, 2001, hereby incorporated by reference) and particularly in the description of Plate Type D in Example 6.1 (NPT IPR plate) and U.S. application Ser. Nos. 10/185,274 and 10/185,363, filed Jun. 28, 2002, each hereby incorporated by reference. These plates consist of a 96 wells with 7 zones (spots) for the immobilization of proteins or other reagents. Each spot was coated with BSA conjugated to either a single phosphopeptide or multiple phosphopeptides.
The plates were prepared essentially as described in example 12. The seven spots supported, respectively, the following BSA conjugates IkB, pY992, pY1068, pY1148, Myc, “A”, and “6-P”. […]
For the assay, 4 ul from TnT reaction product described above were added to the coated plate containing 50 μl of binding buffer supplemented with 50 ng/well Ru-Streptavidin. […] The ECL signals were measured using an imaging plate reader (IPR). The raw data from the IPR reader was then normalized using two steps of normalization. […] These 50 lowest values were averaged and divided into each signal for that spot to generate a signal value which could be compared readily between the peptide-conjugate spots. […]

[2] = target: T2, IkBa peptide [SEQ ID No. 1] (Homo sapiens, UniProt P25963); assay: Phosphopeptide binding assay, peptide-BSA coated IPR plate
T2 construct: two phosphoserines in the DSGLDS motif (chemical modification); purchased New England Peptide, Fitchburg Mass; host or cells: chemical synthesis
T2 sequence (P25963 with tags, fused parts or gaps limits assumed): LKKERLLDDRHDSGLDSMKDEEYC
From the text: A phosphopeptide derived from the IkBa degradation motif (SEQ ID NO: 1) and a phosphopeptide derived from c-Myc (SEQ ID NO: 4) were chemically synthesized (New England Peptide, Fitchburg Mass.) with the following sequences respectively:
A maleimide pre-activated BSA (Pierce, Pittsburgh Pa.), which contains estimated 17 active maleimide groups on the protein surface, was used as the protein carrier, and was supplied as a lyophilized preparation. Coupling of the IkBa peptide (SEQ ID NO: 1) to the pre-activated BSA was carried out with 2 mg BSA (30 nmol) and 17 equivalents of the 25 residue phosphopeptide in 400 μl PBS. The reaction was terminated with 2 mM […] after incubation at room temperature for 30 minutes. The peptide:BSA conjugate was then purified on PD-10 gel filtration column to remove uncoupled peptide and analyzed with SDS PAGE to monitor the coupling reaction. […] After coupling and purification, the column fractions containing the peptide:BSA conjugates were pooled and the protein concentration of the pooled samples was determined by BCA assay (Pierce, Pittsburgh Pa.). NaN3, (0.02%) was added to the final peptide:BSA conjugate sample for long term storage at 4° C. […]
Two βTRCP genes, βTRCP1 and βTRCP2, are present in the human genome on chromosome 5 and 10, respectively. […] The ECL signals were measured using an imaging plate reader (IPR).

[3] = target: T3, pY992 peptide (SEQ ID NO: 5) (Homo sapiens, UniProt P00533); assay: 96-well screen for phosphopeptide binding proteins, 7-spot IPR plates; conditions: two steps of normalization; top 9 clones
T3 construct: phosphotyrosine at Tyr992 (chemical modification); purchased New England Peptide, Fitchburg Mass; host or cells: chemical synthesis
Experimental: as §1
(§2) The plates were prepared essentially as described in example 12. The seven spots supported, respectively, the following BSA conjugates IkB, pY992, pY1068, pY1148, Myc, “A”, and “6-P”. “A” refers to a conjugate of BSA with multiple peptides: IkB, pY1148, Myc which were then coupled to BSA. “6-P” refers to a conjugate of BSA with the following multiple peptides: IkB, pY1148, pY992, pY1068, Smad3C.
(§3) For the assay, 4 ul from TnT reaction product described above were added to the coated plate containing 50 μl of binding buffer supplemented with 50 ng/well Ru-Streptavidin. The binding reaction was allowed to proceed at room temperature for 1 hour with constant shaking. […] The ECL signals were measured using an imaging plate reader (IPR). The raw data from the IPR reader was then normalized using two steps of normalization. The first round was based on the 50 lowest values for a given specific spot.

pY1148 (SEQ ID NO: 9) = target: T4, pY1148 (SEQ ID NO: 9) (Homo sapiens, UniProt P00533); assay: as above; conditions: two steps of normalization; top 9 clones
T4 construct: phosphotyrosine at Tyr1148 (chemical modification); purchased New England Peptide, Fitchburg Mass; host or cells: chemical synthesis
Experimental: as §1, §2, §3

[4] = target: T5, pY1068 peptide (SEQ ID NO: 7) (Homo sapiens, UniProt P00533); assay: as above; conditions: two steps of normalization; top 9 clones
T5 construct: phosphotyrosine at Tyr1068 (chemical modification); purchased New England Peptide, Fitchburg Mass; host or cells: chemical synthesis
Experimental: as §1, §2, §3

| Molecule | normalized ECL signal, Myc spot [1] | Average ECL signal, IkBa peptide [SEQ ID No. 1] [2] | normalized ECL signal, pY992 spot [3] | normalized ECL signal, pY1148 spot (pY1148 (SEQ ID NO: 9)) | normalized ECL signal, pY1068 spot [4] |
| --- | --- | --- | --- | --- | --- |
| 4237375: IMAGE clone protein: βTRCP2 (protein) MEPDSVIEDKTIELMCSVPRSLWLGCANLVESMCALSCLQSMPSVRCLQISNGTSSVIVSRKRPSEGNYQKEKDLCIKYFDQWSESDQVEFVEHLISRMCHYQHGHINSYLKPMLQRDFITALPEQGLDHIAENILSYLDARSLCAAELVCKEWQRVISEGMLWKKLIERMVRTDPLWKGLSERRGWDQYLFKNRPTDGPPNSFYRSLYPKIIQDIETIESNWRCGRHNLQRIQCRSENSKGVYCLQYDDEKIISGLRDNSIKIWDKTSLECLKVLTGHTGSVLCLQYDERVIVTGSSDSTVRVWDVNTGEVLNTLIHHNEAVLHLRFSNGLMVTCSKDRSIAVWDMASATDITLRRVLVGHRAAVNVVDFDDKYIVSASGDRTIKVWSTSTCEFVRTLNGHKRGIACLQYRDRLVVSGSSDNTIRLWDIECGACLRVLEGHEELVRCIRFDNKRIVSGAYDGKIKVWDLQAALDPRAPASTLCLRTLVEHSGRVFRLQFDEFQIISSSHDDTILIWDFLNVPPSAQNETRSPSRTYTYISR | 10 | 21501 |  |  |  |
| 4419252: IMAGE clone protein: PLCγ (protein) MAGAASPCANGCGPGAPSDAEVLHLCRSLEVGTVMTLFYSKKSQRPERKTFQVKLETRQITWSRGADKIEGAIDIREIKEIRPGKTSRDFDRYQEDPAFRPDQSHCFVILYGMEFRLKTLSLQATSEDEVNMWIKGLTWLMEDTLQAPTPLQIERWLRKQFYSVDRNREDRISAKDLKNMLSQVNYRVPNMRFLRERLTDLEQRSGDITYGQFAQLYRSLMYSAQKTMDLPFLEASTLRAGERPELCRVSLPEFQQFLLDYQGELWAVDRLQVQEFMLSFLRDPLREIEEPYFFLDEFVTFLFSKENSVWNSQLDAVCPDTMNNPLSHYWISSSHNTYLTGDQFSSESSLEAYARCLRMGCRCIELDCWDGPDGMPVIYHGHTLTTKIKFSDVLHTIKEHAFVASEYPVILSIEDHCSIAQQRNMAQYFKKVLGDTLLTKPVEISADGLPSPNQLKRKILIKHKKLAEGSAYEEVPTSMMYSENDISNSIKNGILYLEDPVNHEWYPHYFVLTSSKIYYSEETSSDQGNEDEEEPKEVSSSTELHSNEKWFHGKLGAGRDGRHIAERLLTEYCIETGAPDGSFLVRESETFVGDYTLSFWRNGKVQHCRIHSRQDAGTPKFFLTDNLVFDSLYDLITHYQQVPLRCNEFEMRLSEPVPQTNAHESKEWYHASLTRAQAEHMLMRVPRDGAFLVRKRNEPNSYAISFRAEGKIKHCRVQQEGQTVMLGNSEFDSLVDLISYYEKHPLYRKMKLRYPINEEALEKIGTAEPDYGALYEGRNPGFYVEANPMPTFKCAVKALFDYKAQREDELTFIKSAIIQNVEKQEGGWWRGDYGGKKQLWFPSNYVEEMVNPVALEPEREHLDENSPLGDLLRGVLDVPACQIAIRPEGKNNRLFVFSISMASVAHWSLDVAADSQEELQDWVKKIREVAQTADARLTEGKIMERRKKIALELSELVVYCRPVPFDEEKIGTERACYRDMSSFPETKAEKYVNKAKGKKFLQYNRLQLSRIYPKGQRLDSSNYDPLPMWICGSQLVALNFQTPDKPMQMNQALFMTGRHCGYVLQPSTMRDEAFDPFDKSSLRGLEPCAISIEVLGARHLPKNGRGIVCPFVEIEVAGAEYDSTKQKTEFVVDNGLNPVWPAKPFHFQISNPEFAFLRFVVYEEDMFSDQNFLAQATFPVKGLKTGYRAVPLKNNYSEDLELASLLIKIDIFPAKENGDLSPFSGTSLRERGSDASGQLFHGRAREGSFESRYQQPFEDFRISQEHLADHFDSRERRAPRRTRVNGDNRL |  |  | 10 | 4 | 55 |
